Laboratory results published in patent US20180244730A1.

Legend:
[1] = target: SnoopCatcher (Streptococcus pneumoniae); experiment: time-course of isopeptide bond formation, SDS-PAGE densitometry, 1:1 ratio
[2] = target: SnoopCatcher (Streptococcus pneumoniae); experiment: time-course of isopeptide bond formation, SDS-PAGE densitometry, excess of SnoopTag-MBP

Question: What does the source list for SnoopTag-MBP?
Answer: reaction yield [1]: 80%; percent of SnoopCatcher consumed [2]: 100%
